Results on one molecule are retold here after doi:10.1101/684100 (bioRxiv, 2019).

The target in the experiment is EDB (+)-fibronectin in murine tumor sections (Mus musculus, UniProt P11276). The experiment can be described thus: immunostaining of cells or tissue.
Sequence of EDB (+)-fibronectin in murine tumor sections (P11276 33-2477): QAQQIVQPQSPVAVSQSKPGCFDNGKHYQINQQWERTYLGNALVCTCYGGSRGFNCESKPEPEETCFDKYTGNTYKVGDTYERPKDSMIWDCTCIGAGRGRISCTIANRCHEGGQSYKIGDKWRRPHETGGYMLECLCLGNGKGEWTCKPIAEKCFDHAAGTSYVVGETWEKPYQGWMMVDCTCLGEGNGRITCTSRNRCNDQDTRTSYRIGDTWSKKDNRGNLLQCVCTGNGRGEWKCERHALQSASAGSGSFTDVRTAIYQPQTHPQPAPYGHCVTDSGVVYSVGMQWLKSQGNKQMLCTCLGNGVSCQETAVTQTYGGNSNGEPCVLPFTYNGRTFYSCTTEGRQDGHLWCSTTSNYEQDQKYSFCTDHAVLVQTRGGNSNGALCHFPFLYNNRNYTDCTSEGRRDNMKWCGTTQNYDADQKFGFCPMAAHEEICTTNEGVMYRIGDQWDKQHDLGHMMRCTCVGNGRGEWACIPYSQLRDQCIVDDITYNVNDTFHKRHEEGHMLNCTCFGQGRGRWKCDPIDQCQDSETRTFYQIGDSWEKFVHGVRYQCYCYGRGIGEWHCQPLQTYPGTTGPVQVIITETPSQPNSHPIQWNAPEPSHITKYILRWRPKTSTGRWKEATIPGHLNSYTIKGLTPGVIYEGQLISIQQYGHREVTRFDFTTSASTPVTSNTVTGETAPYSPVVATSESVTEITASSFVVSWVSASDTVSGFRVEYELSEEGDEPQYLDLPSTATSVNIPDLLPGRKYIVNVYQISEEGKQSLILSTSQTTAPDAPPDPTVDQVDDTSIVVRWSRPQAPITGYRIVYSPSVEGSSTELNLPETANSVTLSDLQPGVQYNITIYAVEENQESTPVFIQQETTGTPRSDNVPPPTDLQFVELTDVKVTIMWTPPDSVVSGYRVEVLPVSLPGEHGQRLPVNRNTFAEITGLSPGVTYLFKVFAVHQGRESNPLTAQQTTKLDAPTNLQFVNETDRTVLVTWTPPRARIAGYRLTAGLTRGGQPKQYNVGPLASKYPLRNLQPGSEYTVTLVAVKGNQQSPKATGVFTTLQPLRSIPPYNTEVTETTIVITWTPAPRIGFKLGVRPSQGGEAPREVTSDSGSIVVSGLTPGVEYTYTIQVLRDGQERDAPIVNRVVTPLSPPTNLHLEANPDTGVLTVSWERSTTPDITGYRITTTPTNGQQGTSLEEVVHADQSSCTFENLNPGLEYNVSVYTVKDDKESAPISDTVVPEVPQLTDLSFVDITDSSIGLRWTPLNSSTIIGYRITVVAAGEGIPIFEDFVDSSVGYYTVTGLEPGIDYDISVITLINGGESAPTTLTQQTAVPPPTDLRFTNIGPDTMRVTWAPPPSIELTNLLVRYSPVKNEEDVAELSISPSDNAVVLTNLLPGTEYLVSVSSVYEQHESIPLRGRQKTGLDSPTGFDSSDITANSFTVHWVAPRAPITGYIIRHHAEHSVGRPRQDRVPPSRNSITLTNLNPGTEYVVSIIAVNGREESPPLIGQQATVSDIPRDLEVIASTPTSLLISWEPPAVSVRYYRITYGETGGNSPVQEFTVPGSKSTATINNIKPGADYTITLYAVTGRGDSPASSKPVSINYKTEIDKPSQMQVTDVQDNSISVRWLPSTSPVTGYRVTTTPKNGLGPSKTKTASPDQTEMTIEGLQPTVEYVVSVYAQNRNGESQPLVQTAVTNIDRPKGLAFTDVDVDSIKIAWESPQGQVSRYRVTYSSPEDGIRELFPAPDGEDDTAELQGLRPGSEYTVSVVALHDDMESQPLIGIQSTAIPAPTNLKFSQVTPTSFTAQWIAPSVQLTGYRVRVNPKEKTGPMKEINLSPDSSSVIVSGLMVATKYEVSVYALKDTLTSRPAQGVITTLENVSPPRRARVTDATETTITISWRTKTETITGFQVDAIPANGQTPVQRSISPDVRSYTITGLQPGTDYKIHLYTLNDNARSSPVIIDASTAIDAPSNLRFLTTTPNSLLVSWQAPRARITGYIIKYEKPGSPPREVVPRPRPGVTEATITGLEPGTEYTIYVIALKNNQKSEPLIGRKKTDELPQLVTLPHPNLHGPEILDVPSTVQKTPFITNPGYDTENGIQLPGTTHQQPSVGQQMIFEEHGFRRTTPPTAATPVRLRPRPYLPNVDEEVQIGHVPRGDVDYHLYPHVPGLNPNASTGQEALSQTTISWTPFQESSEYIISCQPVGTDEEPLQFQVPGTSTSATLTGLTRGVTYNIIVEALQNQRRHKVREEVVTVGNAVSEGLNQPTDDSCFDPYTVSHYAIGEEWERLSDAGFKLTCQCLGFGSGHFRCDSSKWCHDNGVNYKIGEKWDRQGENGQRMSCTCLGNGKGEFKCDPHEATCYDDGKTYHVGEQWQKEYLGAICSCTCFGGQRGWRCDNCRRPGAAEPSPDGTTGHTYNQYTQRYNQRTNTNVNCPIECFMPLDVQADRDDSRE

B1: FITC-labeled L19 IgG1 (antibody, V domains shown)
VH: EVQLLESGGGLVQPGGSLRLSCAASGFTFSSFSMSWVRQAPGKGLEWVSSISGSSGTTYYADSVKGRFTISRDNSKNTLYLQMNSLRAEDTAVYYCAKPFPYFDYWGQGTLVTVSS
VL: EIVLTQSPGTLSLSPGERATLSCRASQSVSSSFLAWYQQKPGQAPRLLIYYASSRATGIPDRFSGSGSGTDFTLTISRLEPEDFAVYYCQQTGRIPPTFGQGTKVEIK
For B1, the binding result was “binds”.
